Biological target: mu-FGF5-Flag (FGF5 p. L191S) (rabbit)
Assay: co-IP; HEK293T cells co-transfected with FGFR1 and FGF5-Flag or mu-FGF5-Flag; lysed 48 h later (50 mM Tris pH 7.4, 150 mM NaCl, 0.2 mM EDTA, 2 mM EGTA, 0.5% Igepal CA-630, 10% glycerol); anti-Flag IP resin overnight at 4 °C; immunoblot with anti-FGFR1 and anti-Flag; densitometry of FGFR1 in the IP normalised to FGF5 or mu-FGF5

- fold decline in binding ability to FGFR1 against FGF5: 0.49 fold
Substance: FGFR1 (fibroblast growth factor receptor 1)
